Experimental data reported in patent publication US7867500B2, “Cofactor that modulates steroid receptor activities” (The United States of America as represented by the …, priority 2004, dated 2011).

Biological target: T1, GR (Rattus norvegicus, UniProt P06536)
T1 construct: expressed in transfected cells; host or cells: Cos-7
T1 sequence (P06536 1-795): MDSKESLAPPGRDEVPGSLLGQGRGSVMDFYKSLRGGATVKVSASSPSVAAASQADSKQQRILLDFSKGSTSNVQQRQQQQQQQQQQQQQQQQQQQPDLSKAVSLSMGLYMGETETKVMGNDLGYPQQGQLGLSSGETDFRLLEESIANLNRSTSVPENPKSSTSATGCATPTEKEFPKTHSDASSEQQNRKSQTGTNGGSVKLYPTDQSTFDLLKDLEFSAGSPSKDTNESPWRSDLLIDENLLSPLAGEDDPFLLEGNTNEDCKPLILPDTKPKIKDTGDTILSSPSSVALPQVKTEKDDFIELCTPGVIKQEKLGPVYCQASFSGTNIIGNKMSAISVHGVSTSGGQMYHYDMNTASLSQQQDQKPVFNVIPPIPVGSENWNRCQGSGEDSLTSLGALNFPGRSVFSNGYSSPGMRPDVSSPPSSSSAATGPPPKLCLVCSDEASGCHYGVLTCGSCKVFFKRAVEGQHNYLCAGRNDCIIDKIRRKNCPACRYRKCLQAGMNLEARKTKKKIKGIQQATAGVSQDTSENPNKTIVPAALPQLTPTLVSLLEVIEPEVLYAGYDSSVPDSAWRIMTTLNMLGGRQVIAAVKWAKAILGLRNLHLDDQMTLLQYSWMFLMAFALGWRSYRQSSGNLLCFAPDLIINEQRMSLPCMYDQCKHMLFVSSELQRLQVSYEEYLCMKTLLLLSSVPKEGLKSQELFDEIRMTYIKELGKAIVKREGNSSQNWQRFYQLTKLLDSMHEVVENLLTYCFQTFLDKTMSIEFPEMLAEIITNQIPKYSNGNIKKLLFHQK
T1 sequence (Q6EMB2 5-1281 A149V/F1267S partner limits assumed): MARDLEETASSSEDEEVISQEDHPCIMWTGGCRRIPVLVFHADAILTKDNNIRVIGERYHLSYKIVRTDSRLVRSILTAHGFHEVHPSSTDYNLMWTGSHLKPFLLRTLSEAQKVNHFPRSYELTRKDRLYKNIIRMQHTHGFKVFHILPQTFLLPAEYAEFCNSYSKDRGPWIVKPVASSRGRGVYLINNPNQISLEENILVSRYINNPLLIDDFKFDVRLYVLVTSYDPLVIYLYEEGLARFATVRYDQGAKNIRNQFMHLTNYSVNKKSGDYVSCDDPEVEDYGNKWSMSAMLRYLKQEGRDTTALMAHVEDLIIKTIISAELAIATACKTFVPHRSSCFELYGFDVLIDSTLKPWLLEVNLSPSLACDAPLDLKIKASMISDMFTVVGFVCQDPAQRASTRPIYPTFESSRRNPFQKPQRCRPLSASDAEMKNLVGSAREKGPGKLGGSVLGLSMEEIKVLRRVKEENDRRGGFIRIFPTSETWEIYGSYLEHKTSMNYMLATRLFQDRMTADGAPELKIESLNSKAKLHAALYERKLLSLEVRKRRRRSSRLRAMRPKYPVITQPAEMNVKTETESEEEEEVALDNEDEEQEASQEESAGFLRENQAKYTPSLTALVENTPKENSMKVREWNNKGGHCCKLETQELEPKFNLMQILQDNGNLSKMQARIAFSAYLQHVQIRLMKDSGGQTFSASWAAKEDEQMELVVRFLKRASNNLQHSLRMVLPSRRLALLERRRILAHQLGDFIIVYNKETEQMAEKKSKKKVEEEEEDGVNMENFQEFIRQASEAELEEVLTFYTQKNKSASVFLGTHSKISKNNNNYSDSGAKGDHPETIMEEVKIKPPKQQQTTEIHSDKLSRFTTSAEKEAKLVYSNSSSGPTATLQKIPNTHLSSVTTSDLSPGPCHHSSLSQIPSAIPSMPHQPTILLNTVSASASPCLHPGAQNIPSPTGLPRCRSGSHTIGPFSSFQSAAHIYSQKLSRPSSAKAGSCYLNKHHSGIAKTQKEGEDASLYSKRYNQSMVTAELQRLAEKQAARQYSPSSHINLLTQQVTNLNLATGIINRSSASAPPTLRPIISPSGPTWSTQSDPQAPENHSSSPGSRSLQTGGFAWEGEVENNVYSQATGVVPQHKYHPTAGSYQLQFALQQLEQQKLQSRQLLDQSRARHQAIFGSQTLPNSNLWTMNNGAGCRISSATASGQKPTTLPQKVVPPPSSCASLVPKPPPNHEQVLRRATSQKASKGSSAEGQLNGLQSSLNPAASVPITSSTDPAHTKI
Assay: Whole cell co-immunoprecipitation in Cos-7 cells: GR
Assay type: binding
Conditions: EtOH ± 1 μM Dex, 2 hr
Protocol: FIG. 7C1-3 illustrate whole cell co-immunoprecipitation of STAMP, GR, and TIF2/GRIP1. Cos-7 cells that had been co-transfected with Flag/STAMP (or Flag itself), HA/GRIP1, and GR plasmids (10 μg of each/150 mm dish) for 48 hr were treated for 2 hr with EtOH±1 μM Dex before being lysed as described in Example 1. Lysate was either analyzed on SDS-PAGE gels or treated with anti-Flag antibody to immunoprecipitate Flag/STAMP. The pellets were separated on SDS-PAGE gels and Western blotted with anti-Flag (FIG. 7C1), anti-HA (FIG. 7C2), or anti-GR antibodies (FIG. 7C3). In each panel, lane 1=5.7% of input lysate, lane 2=IP pellet of Flag/STAMP, HA/GRIP1, and GR+EtOH, lane 3=IP pellet of Flag/STAMP, HA/GRIP1, and GR+Dex, and lane 4=control IP pellet of Flag, HA/GRIP1, and GR+EtOH. Similar results were obtained in a second experiment.
Immunoprecipitations were conducted as generally described in Wang et al. (2004) Mol. Endocrinol. 18: 1476-95, with slight modifications. The day before transfection, Cos-7 cells were seeded into 150 mm dishes at 200,000 cells per dish containing 20 ml of media. On the next day, about 30 μg of DNA/dish was transfected with 60 μl of FuGene reagent. […]

B1: STAMP: SRC-1 and TIF2 Associated Modulatory Protein, 1277 amino acid human polypeptide, expressed from transfected plasmid (protein)
chain: T1 sequence (Q6EMB2 5-1281 A149V/F1267S partner limits assumed)
  co-immunoprecipitation of GR with Flag-STAMP by anti-Flag antibody: co-immunoprecipitated
